Substrate in data set [1]: O=C(CO)[C@H](O)[C@H](O)COP(=O)(O)O
As to the kind of experiment: coupled-enzyme spectrophotometric assay of RPE activity. Format: biochemical, Escherichia coli. The conditions noted are these: Co2+ enzyme.

Substrate in data set [2]: O=C(CO)[C@H](O)[C@H](O)COP(=O)(O)O
Described as above. Format: biochemical, Streptococcus pyogenes. As to conditions: Co2+ enzyme.

For five proteins, Km, kcat and kcat/Km results are on record in paper PMC2597415.

B1: ALSE (D-allulose 6-phosphate 3-epimerase) (Escherichia coli K-12) (protein)
chain: MKISPSLMCMDLLKFKEQIEFIDSHADYFHIDIMDGHFVPNLTLSPFFVSQVKKLATKPLDCHLMVTRPQDYIAQLARAGADFITLHPETINGQAFRLIDEIRRHDMKVGLILNPETPVEAMKYYIHKADKITVMTVDPGFAGQPFIPEMLDKLAELKAWREREGLEYEIEVDGSCNQATYEKLMAAGADVFIVGTSGLFNHAENIDEAWRIMTAQILAAKSEVQPHAKTA
In the case of B1, in data set [1], the Km – broadly, the concentration of substrate that gives half-maximal velocity – worked out at 3000 ± 300 µM; the kcat (usually the maximal rate divided by the concentration of active sites) was found to be 2 ± 0.8 s⁻¹; the kcat/Km (in general, the turnover number divided by the Michaelis constant) was 670 M⁻¹ s⁻¹.

B2: RPE (D-ribulose 5-phosphate 3-epimerase) (Streptococcus pyogenes serotype M1) (protein)
chain: MSTLKIAPSILAADYANFASELARIEETDAEYVHIDIMDGQFVPNISFGADVVASMRKHSKLVFDCHLMVVDPERYVEAFAQAGADIMTIHTESTRHIHGALQKIKAAGMKAGVVINPGTPATALEPLLDLVDQVLIMTVNPGFGGQAFIPECLEKVATVAKWRDEKGLSFDIEVDGGVDNKTIRACYEAGANVFVAGSYLFKASDLVSQVQTLRTALNV
Consider B2, for which, in data set [2], the Km was found to be 1200 ± 100 µM, the kcat is 3800 ± 160 s⁻¹ and the catalytic efficiency (kcat/Km) was determined as 3.2e+06 M⁻¹ s⁻¹.

B3: ALSE (D-allulose 6-phosphate 3-epimerase) (Escherichia coli K-12; DEL196-196) (protein)
chain: MKISPSLMCMDLLKFKEQIEFIDSHADYFHIDIMDGHFVPNLTLSPFFVSQVKKLATKPLDCHLMVTRPQDYIAQLARAGADFITLHPETINGQAFRLIDEIRRHDMKVGLILNPETPVEAMKYYIHKADKITVMTVDPGFAGQPFIPEMLDKLAELKAWREREGLEYEIEVDGSCNQATYEKLMAAGADVFIVGSGLFNHAENIDEAWRIMTAQILAAKSEVQPHAKTA
With B3, in data set [1], the Km amounted to 3900 ± 500 µM, the kcat is 130 ± 7 s⁻¹ and the kcat/Km amounted to 33000 M⁻¹ s⁻¹.

B4: ALSE (D-allulose 6-phosphate 3-epimerase) (Escherichia coli K-12; DEL197-197) (protein)
chain: MKISPSLMCMDLLKFKEQIEFIDSHADYFHIDIMDGHFVPNLTLSPFFVSQVKKLATKPLDCHLMVTRPQDYIAQLARAGADFITLHPETINGQAFRLIDEIRRHDMKVGLILNPETPVEAMKYYIHKADKITVMTVDPGFAGQPFIPEMLDKLAELKAWREREGLEYEIEVDGSCNQATYEKLMAAGADVFIVGTGLFNHAENIDEAWRIMTAQILAAKSEVQPHAKTA
For B4, in data set [1], the Km turned out to be 2800 ± 600 µM, the kcat amounted to 240 ± 14 s⁻¹ and the kcat/Km was determined as 85000 M⁻¹ s⁻¹.

B5: ALSE (D-allulose 6-phosphate 3-epimerase) (Escherichia coli K-12; DEL198-198) (protein)
chain: MKISPSLMCMDLLKFKEQIEFIDSHADYFHIDIMDGHFVPNLTLSPFFVSQVKKLATKPLDCHLMVTRPQDYIAQLARAGADFITLHPETINGQAFRLIDEIRRHDMKVGLILNPETPVEAMKYYIHKADKITVMTVDPGFAGQPFIPEMLDKLAELKAWREREGLEYEIEVDGSCNQATYEKLMAAGADVFIVGTSLFNHAENIDEAWRIMTAQILAAKSEVQPHAKTA
With B5, in data set [1], the Km was determined as 5100 ± 500 µM, the kcat turned out to be 440 ± 20 s⁻¹ and the kcat/Km was found to be 86000 M⁻¹ s⁻¹.
